{"source": "paper PMC6957489", "key": {"[1]": {"target": "t-SNARE heterodimer with syntaxin-1A labeled at position 203 with cy5 (N-N FRET pair) (rat) (UniProt P32851)", "experiment": "FRET or BRET; single-molecule FRET (prism-based TIRF, 100-ms resolution) between cy3-syb2 in v-SNARE 13 nm nanodiscs (ND1) and cy5-syntaxin-1A in t-SNARE nanodiscs; NDs (5 µM) incubated at room temperature 30 min, diluted to 10 pM; no syt1; with EGTA or 500 µM free Ca2+ (Ca2+ had no effect); 100 mM KCl, 25 mM HEPES pH 7.4"}, "[2]": {"target": "t-SNARE heterodimer with syntaxin-1A labeled at position 241 with cy5 (C-C FRET pair) (rat) (UniProt P32851)", "experiment": "FRET or BRET; single-molecule FRET as above, with full-length syt1 co-reconstituted in the v-SNARE nanodisc; values in the absence of Ca2+ (EGTA); subsequent Ca2+ (500 µM free) had only subtle effects, with an increase in the highest C-C FRET peak"}, "[3]": {"target": "t-SNARE heterodimer with syntaxin-1A labeled at position 241 with cy5 (C-C FRET pair) (rat) (UniProt P32851)", "experiment": "FRET or BRET; single-molecule FRET (prism-based TIRF, 100-ms resolution) between cy3-syb2 in v-SNARE 13 nm nanodiscs (ND1) and cy5-syntaxin-1A in t-SNARE nanodiscs; NDs (5 µM) incubated at room temperature 30 min, diluted to 10 pM; no syt1; with EGTA or 500 µM free Ca2+ (Ca2+ had no effect); 100 mM KCl, 25 mM HEPES pH 7.4"}}, "data": [{"substance": "syb2 labeled at position 33 with cy3 (N-N FRET pair) (from UniProt P63045 1-116) (natural protein)", "values": [{"measurement": "FRET ratio (R), peak of the distribution, N-N pair", "setting": "[1]", "result": 0.7}]}, {"substance": "syb2 labeled at position 72 with cy3 (C-C FRET pair) (from UniProt P63045 1-116) (natural protein)", "values": [{"measurement": "FRET ratio (R), C-C pair, first of three states (with apo-syt1)", "setting": "[2]", "result": 0.2}, {"measurement": "FRET ratio (R), C-C pair, second of three states (with apo-syt1)", "setting": "[2]", "result": 0.5}, {"measurement": "FRET ratio (R), C-C pair, third of three states (with apo-syt1)", "setting": "[2]", "result": 0.7}, {"measurement": "FRET ratio (R), peak of the distribution, C-C pair", "setting": "[3]", "result": 0.2}]}]}
